Consider one molecule from article PMC2033583, “Temperature sensitivity for conformation is an intrinsic property of wild-type p53”.

The target in the data set is p53 (murine wild-type) (mouse, UniProt P02340 1-390). Kind of data set: EMSA; 1,10-phenanthroline, 20 min at 30 C; PAb 421; at least partially resistant to chelator; EMSA on 4% polyacrylamide gels with PAb 421, reticulocyte lysate p53 pre-exposed to OP 20 min at 30 or 37 C; binding buffer, salt and pH not given (as in Hainaut and Milner 1993b). As to conditions: protein: ivt; chain copies: 4; label: 32P. A general note: Mobility shift assays separate free from complexed probe on a gel.
p53 (murine wild-type), sequence (P02340 whole entry): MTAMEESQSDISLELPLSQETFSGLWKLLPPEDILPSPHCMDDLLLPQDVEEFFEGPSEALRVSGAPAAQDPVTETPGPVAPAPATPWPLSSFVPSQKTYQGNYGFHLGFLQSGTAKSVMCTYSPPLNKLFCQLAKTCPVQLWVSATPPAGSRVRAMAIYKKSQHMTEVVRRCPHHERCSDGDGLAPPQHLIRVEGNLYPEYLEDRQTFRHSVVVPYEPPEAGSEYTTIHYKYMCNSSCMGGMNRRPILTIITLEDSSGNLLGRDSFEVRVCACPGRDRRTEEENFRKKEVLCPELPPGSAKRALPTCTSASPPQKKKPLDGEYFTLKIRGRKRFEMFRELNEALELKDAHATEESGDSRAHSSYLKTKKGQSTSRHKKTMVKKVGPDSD

B1: p53 CON (dsDNA)
DNA 1: GGGCATGTCCGGGCATGTCC
DNA 2: GGACATGCCCGGACATGCCC
With B1, the binding result is “binds”.
